assay: soluble on expression in E. coli; label from the status in PepcDB or PDB records

Sequence	soluble on expression in E. coli
MTKKCPKCGNEFDAELTTCPTCGYSLTDTTVDKEEAETTSTNIDFETQENEEHEDQLNENIEWSELKDMSLGHVMELFGESPEEESNDDKKEESTEDNLIVSDSEDVSGLEASLQEGASEETHDSVEESIPATEETPTHSTEEKLATDEAVNLEETTEETTEETTTVEAETAEVSETVKSEEEALTEISGTEVISTTSEEEIFSQPPIEDQDVTPNETLQAYIQAHRADTEMSENPSEETAETQELENSGEAVLTQAETPTESISDSEEGLTSAASLEAPSDADATEGKVSDSGVIPPMNETGNAQPAPAPKKPSKKVVFVALAVVLLAGGSAWAYHDQTQKAAAQEAAALTKKTDTLKDELAAFYTTKEQVFIKPDMVTVSPEKLSKQVAEIKDSEEYSQLNKQIQTLKEKQQTIQQINQLFEAPIVNGNELKPAILAADQPISVKKLTGNDPFDQLMNQAIDQANQQYNQLQKAKKAVEVIYKDGKTTNQLNRDTYQAAKAEVDKVTSDKLKKELVKQVTTADQALTKVEEEQKRIAEEQAAAEQAKQAEEQAKQAAAAKKEDAKKEETAKTEANGYTAPNSDGVYTSPLYAPDAADIADSSNPAWTWAPGVKEKVLDTVIARGYVVPGGYSLEPAKIVNGEGYYNLYATNNQSKLLEGTTEKNVHMYLVTINAKTGWFKGNASRNAGQ	not soluble
MTKKVAIILANEFEDIEYSSPKEALENAGFNTVVIGDTANSEVVGKHGEKVTVDVGIAEAKPEDYDALLIPGGFSPDHLRGDTEGRYGTFAKYFTKNDVPTFAICHGPQILIDTDDLKGRTLTAVLNVRKDLSNAGAHVVDESVVVDNNIVTSRVPDDLDDFNREIVKQLQ	not soluble
MTKNEIRKYILHKMKNFNKAEKRKADTWLRNQFFATEEYKEANAIALVLSFNHEVDTFSIIEQALMDHKRIFVPKMDYLNHQMTFKEIFNLKDIDVDNKGIYYPTSKGETTNNLDLIVVPGVGFQDDGYRIGYGGGYYDRFLANYQTKTISLLYDFQITSFEPESFDQPVDKLIIYQSALEHHHHHH	soluble
MTKRIEIKPATAADQAALAEIYLVDRQQDFPWVTDPQLQDFNEDSRGEFVLVAWIDGQRAGFCSLYRLANFIHLLFVAPDFRHLKVGERLLTEMRQYATEPLTLKCVMANENALRFYAQVGFRIVKADADALPPNYTLRDTHTEQYVALVDVMANERKLN	soluble
MTLAEENLRLFEKKFAILQEISNALVVTDNISAIANLMLDLAVNYTRAEKGSLLLLNERDELFILAGRGIDLQLMRTYRARLGEGIAGIVAKGRVPILVKDIDQDSRFQGMTRDRYKTPSFISCPIVSKDRLLGLLNINDKADGTPFLDDEFSLIKIIANQAAIALENAMLVNQLR	not soluble
MTLCAMYNISMAGSHPTTICVVMDRFLESFSELYDIIDENDTDVMMDFISRFARTDEIMPEDKTVGFVVVNADKKLMSVSFSDIDENMKKVIKATAEKFKNKGFKVETDM	soluble
MTLEWEEFLDPYIQAVGELKIKLRGIRKQYRKQNKHSPIEFVTGRVKPIESIKEKMARRGITYATLEHDLQDIAGLRVMVQFVDDVKEVVDILHKRQDMRIIQERDYITHRKASGYRSYHVVVEYTVDTINGAKTILAEIQIRTLAMNFWATIEHSLNYKYQGDFPDEIKKRLEITARIAHQLDEEMGEIRDDIQEAQALFDPLSRKLNDGVGNSDDTDEEYR	soluble
MTLGTALKQARKAQQLNQKQAARGICAQSMLSAIENDRYVPNARLLLALCQRLGVAVSTLSLADDFEISAEQAFNDRVRQMCNAHQYQQLKDWLLQPTTLEHVQTDEQTQAYYYYLGVACWQVDRTSDAAQQNLRLAIGMAAPSSPPTTLTRLALISLAVVKAHHHPQAPVAALVTRALADIDAGAYEENANIVFYLAGLVAYEQHDSQLAVARLTQGLAFATTHDSHYMLANIYQLMAQLAMAAGETATAQVASQRSQVFKDLFKEQINDRL	not soluble
MTLKLTYFDIRGLAEPIRLLLNDQEIPFEDNRISREEWAEMKSTMIFAQLPCLHIGTETIVQSAAILRHLGRIYGLNGSTESETSFIDMFSEGLRDLRTKYFTMIKTDYEDGKEAYITETLPGELLRIEKLFCTFNNGENFVSGDKLSYADYALFELLDIHLILTPTALNGTPALKRFHGRFAERPNMRLYLNKRAELNPFVSGNGKQ	not soluble
MTLLRVGGVPEPFNEIFMQAQEGALPSTKLQVEFLGVAGGSGAALEMLAKCELDVAVTLTESAVARTKAAASGLAVHSVYVASPLAWGVAVSSKKTDWTDLNSLDAAVLRGESIRAGFSRRGSGSHLLLSVFASDRGWISTGIQNDILKSFECGSFDGLIQAAVAGDIDMFLWETCFTKECAATRQGLIRLVGEYAPSWPAFVLVCRDDAHVRAAVSELKREIEPLQRKFCTGEGLDILQNKYGFSLESAKLWLSRLQFAEPDEALSAEQWRSVERALELTAGSRSSSR	soluble
MTLSIIVAHDKQRVIGYQNQLPWHLPNDLKHIKQLTTGNTLVMARKTFESIGKPLPNRRNVVLTNQASFHHEGVDVINSLDEIKELSGHVFIFGGQTLYEAMIDQVDDMYITVIDGKFQGDTFFPPYTFEDWEVESSVEGQLDEKNTIPHTFLHLVRRKGK	soluble
MTLTKAELADILVDKVSNVTKNDAKEIVELFFEEIRSTLASGEEIKISGFGNFQLRDKPQRPGRNPKTGEEVPITARRVVTFHASQKLKSMVEHYYDKQR	not soluble
MTMEQLQTPPVVVEVCHTLDKKQLNAISKQVYETTLEAIERARRDSEVDSDLIYTRVGVRRFLDNCSEAYLDELIAKGLPTGRRLSDRKTCWSKHQLRSWLLENE	not soluble
MTMTLNELLATNPDGTLEDIAGKYNTSLFAVVEALPTAQCTLATGDRFDQVWDTIATWGEVTLISHTADAILEFKSELPTGTHRHGYFNLRGKNGLSGHIRATSCQHIAFIERKFMGMDTASVVFFNANGAAMFKIFLGRDSHRQLLSAQVDAFRALASELQPEQVLEHHHHHH	soluble
MTNEEPLPKKVRLSETDFKVMARDELILRWKQYEAYVQALEGKYTDLNSNDVTGLRESEEKLKQQQQESARRENILVMRLATKEQEMQECTTQIQYLKQVQQPSVAQLRSTMVDPAINLFFLKMKGELEQTKDKLEQAQNELSAWKFTPDR	soluble
MTNEEPVPSTSSVLSAAEKNVKIETPSRKRKGLDIDALWRKKFKDVENQKSPEKSEKSEKTIKEEPLETHPSGERKLRSASKDSKSLSKETHNTISTRSSSSGTPRKKMEPEDVKPNIKMLKKSLPVSFQCSNLNDGTVGDASVMLDPTKISLHSSSVAYGEESQDEMEVIQHSTDDPNGTREEFDYNQIEYGNAVTPNGTYTLYAPDSNYAPYYQYSNNMQSSPQDNAPYLVPAPQSPVSIDDADSINLPNNQRASPATVNWLFENYEIGEGSLPRCELYDHYKKHCAEHRMDPVNAASFGKLIRSVFHNLKTRRLGTRGNSKYHYYGIRLKDSSTLHSMQHPQPQIIQNTYTPPMQLPQRDAYADTVNQVAAIKYMDVEIPDKRARKDNSSSSSSCRDSVSPCMDLPAQQTIQHTPVHSVIPSTQQPAPLHNNNVVSYVVTESDKAAMGKIDLPIVPFPDKDALMATIGFRKLGVGEEELNSLIDIYEILCREILALIKNIDFASVEDTWSKFWSGNFGVDRDHISALCTLDQVQDYIIEVDLALYQTIVDTLIPNVLLSELSTGMTQTCRTFAKNIDVYLRKSLMLANLGEFFVKKKIQAIKYLQQGLKRYTSLNHLAHASRGVLMKPEQVQQMYQDYIRVDINTVHQQAGWICGCDSVMVHHVNNAFKHNLQRMSAMEVWAEWLESIVDQVLAKYHDKPANVIANVGKQFLLNWSFYTSMIIRDLTLRSAMSFGSFTLIRLLADDYMYYLIESKIAKAGKQQLITVIRADKDWPLTTNPQEYIVVANDNDEDLDLEKAGLL	not soluble
MTNIEILENMLKLQQKLNDETNGLNWENGYTKEGKLISWRRCIYMECAELIDSFTWKHWKNISSLTNWENVRIEIVDIWHFILSLLLEEYRDKNNKDFKAIATEVNAVSVFQDFCKEEEYPNEGDIYGILNDIELIIHKCSGFGFNLGELLSTYFTLAIKCGLNLEILYKTYIGKNVLNIFRQNNGYKDGSYKKTWNGKEDNEVLAQILEQELDFDTIYKKLEECYKKA	soluble
MTNSIRIGTRKSPLALIHTNLVIQQIKQFFPDINCEIVPIITSGDLIQNKPLYDIGGKALFLKEIEQALLDKKIDLAVHSLKDVPGRMPEPLVIAAVLEREDPRDVFVCLKYKSIEELPQNAVIGSSAVRRKAFIQKIRPDLKVTVFRGNVDSRIKKLMTGEVDATILAYTGLKRLEVFNPEYCHLIEYSQMLPCIGQGVIAVEIRKDDNAMLEICNQINHLPTFELIKPERAFLEYLDANCRTPIAAYSQYLDANPRHLSKLAYREVLEGNTEALATAAYKSNRTDASTGLTYKLPLEVEFGKVSNIQTNFMLGNLDGSKITFHTETTNIKTSTEAGIKAAKMMLEAICK	soluble
MTNSQTVSLIGPTQMAPQSTPPPPVNELWFIDAQAMFQNYANLRSFSKSNANEINTTIGGFVFGRKARKQVIHVLFAYAEDLTESNRQFLESSLSADIELVGNLNIDGQSQILPGGQFTLQLTSRMLENRSISEFLDMNVMFNNEHVLMEGASCVSRVGYEWSLRAGREQEDVKSAAERLSMASFRFTYLNAEHGLVIREQKPEAAQQKYLDKFSKGAVPYKDVIEFTAMQSLTRDTSNDTEDQKLVPTVKVTKDNKHFTRLVTIGEVVFPAFFGDSSLDLYKRSREAFNRRANNTMMVTVNGIRAGRGVTTTTSATYLPPGWVSLLHLQLPTKWTDNEQRNYRIRLHKLFNLPSSKPVLRLSQALALHSESARLTNKKLIREPHLSITNYQPVGEITTVNGPYNYHHYMQDGIDDSGWGCAYRSFQTIWSWFILNGYTDKPVPSHREIQQALVDIQDKQAKFVGSRQWIGSTEISFVLNELLKLECRFIATNSGAEVVERVRELARHFETSGTPVMIGGNMLAHTILGVDFNDTTGETKFLVLDPHYTGSEDIKTITSKGWCAWKPASFWSKDHFYNMVLPQPPSDAI	not soluble
MTPIPLINIPLCNLAGDGYILSEKSQSQNMLRGIVMSETVRVGLLGYGYASKTFHAPLIAGTAGMELVAVSSSNAEKVHADWANLRVEKDPQALFSDPDIDLIVIPTPNDTHFPLAKQALEAGKHVVVDKPFTVTLSQAYDLGAIAERAGKVLSVFHNRRWDSDFLTLKQLLSAGTLGNVVYMESHFDRFRPEVRQRWREDGSEGSGIWYDLGPHLLDQALELFGLPVAIQVDMAQLRPGSKATDYFHATLIYPQRRVILHASMLVAAASARYTVHGTRGSFVKYGLDPQEDRLKAGERPPLADWGQDKHDGVLTLSRDGITAEQTIATIPGNYPAYYAAVRDALLGKGENPVGVNQAIQVMELIELGLLSHEQKKAVALKNSLEHHHHHH	not soluble
MTPLVKDIIMSSTRMPALFLGHGSPMNVLEDNLYTRSWQKLGMTLPRPQAIVVVSAHWFTRGTGVTAMETPPTIHDFGGFPQALYDTHYPAPGSPALAQRLVELLAPIPVTLDKEAWGFDHGSWGVLIKMYPDADIPMVQLSIDSSKPAAWHFEMGRKLAALRDEGIMLVASGNVVHNLRTVKWHGDSSPYPWATSFNEYVKANLTWQGPVEQHPLVNYLDHEGGTLSNPTPEHYLPLLYVLGAWDGQEPITIPVEGIEMGSLSMLSVQIGLEHHHHHH	soluble
MTPPRMRISGENELVQALLEHGHVLVEASEAELIFDPTQLVRRGQIVAHLGHATLADLDAYSSGHAFVLTELMPQIYAVTASDELAGMVAELLISELGGRVVHVPESQRDRLTAGLACAGFIGQVRSEARNLLTEALGNAHHADEVVEQLTDAVAPPLNVAALERGYHAIDSVGTKRLYAQLARRSGEVFRNNDVELWAMNQEQNNT	not soluble

From the DeepSol protein solubility set
